This is an account of results in US20200115466A1 (NANOCRUISE PHARMACEUTICAL, published 2020).

Positions count from the first letter of the chain named.

The test addresses T1, MUC1 on the surface of lung cancer cell line H838 (UniProt P15941 24-1255, limits assumed, tumour-type glycosylation (GalNAc epitope RPAPGS(GalNAc)TAPPAHG), as the filing describes the antigen).
T1 construct: whole, on cells; No MUC1-negative control of H838 is reported; also called antigen
In words: flow cytometry, surface staining of H838 cells, PE anti-human IgG. As for the experimental part:
Lung cancer cell line H838 was obtained from the University of Texas M.D. Anderson Cancer Center. Cells were cultured in 10% RPMI 1640 medium. Different concentrations of chimeric antibody or humanized antibodies were used as primary antibody for staining, washed three times with PBS, then incubated with PE-conjugated mouse-anti-human IgG (BioLegend). The stained cells were analyzed by FACS Caliber flow cytometer (BD Biosciences, San Jose, Calif.).
A general note: A flow cytometer gives signals particle by particle.

T1 sequence (P15941 24-1255 limits assumed): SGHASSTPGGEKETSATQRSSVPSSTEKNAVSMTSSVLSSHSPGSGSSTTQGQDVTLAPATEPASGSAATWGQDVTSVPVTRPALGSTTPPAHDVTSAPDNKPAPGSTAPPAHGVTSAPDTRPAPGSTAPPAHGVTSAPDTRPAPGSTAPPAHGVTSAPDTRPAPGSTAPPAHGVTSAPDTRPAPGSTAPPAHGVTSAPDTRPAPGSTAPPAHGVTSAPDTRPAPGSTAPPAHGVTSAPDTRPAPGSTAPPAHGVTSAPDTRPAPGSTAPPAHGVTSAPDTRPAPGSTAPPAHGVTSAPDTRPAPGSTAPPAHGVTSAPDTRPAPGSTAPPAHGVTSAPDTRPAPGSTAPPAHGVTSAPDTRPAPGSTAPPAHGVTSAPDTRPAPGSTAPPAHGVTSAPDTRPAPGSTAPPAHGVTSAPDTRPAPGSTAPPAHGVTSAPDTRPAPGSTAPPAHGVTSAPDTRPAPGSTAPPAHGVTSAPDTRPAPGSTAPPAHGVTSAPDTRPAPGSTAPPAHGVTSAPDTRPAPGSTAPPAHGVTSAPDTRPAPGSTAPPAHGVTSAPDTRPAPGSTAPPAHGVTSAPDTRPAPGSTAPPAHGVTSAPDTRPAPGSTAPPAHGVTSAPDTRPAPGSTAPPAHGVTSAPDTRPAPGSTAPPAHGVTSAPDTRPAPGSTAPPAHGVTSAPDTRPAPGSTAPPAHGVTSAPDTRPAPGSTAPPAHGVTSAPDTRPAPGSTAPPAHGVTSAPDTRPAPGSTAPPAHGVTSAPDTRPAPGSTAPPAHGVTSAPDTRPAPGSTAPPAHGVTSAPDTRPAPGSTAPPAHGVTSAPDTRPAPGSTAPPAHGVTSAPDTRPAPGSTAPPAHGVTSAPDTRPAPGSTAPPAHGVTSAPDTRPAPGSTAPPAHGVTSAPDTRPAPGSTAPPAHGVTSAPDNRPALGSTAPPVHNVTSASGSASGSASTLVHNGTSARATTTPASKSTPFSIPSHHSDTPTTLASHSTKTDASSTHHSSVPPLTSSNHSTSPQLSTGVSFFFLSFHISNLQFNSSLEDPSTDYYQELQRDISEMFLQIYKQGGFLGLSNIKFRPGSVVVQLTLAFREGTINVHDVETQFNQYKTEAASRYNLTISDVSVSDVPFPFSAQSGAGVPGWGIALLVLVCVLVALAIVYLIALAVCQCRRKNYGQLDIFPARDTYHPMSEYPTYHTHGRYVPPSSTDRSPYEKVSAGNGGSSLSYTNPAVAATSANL

B1: humanized 16A antibody hVH2hVL2 (antibody, human IgG1, lambda, V domains shown)
VH: EVQLVESGGGLVQPGGSLRLSCAVSGIDFSRYWMSWVRQAPGKGLEWVGEITPDSNTINYVPSVKGRFTISRDNAKNSLYLQMNSLRAEDTAVYYCASYYEGFAYWGQGTLVTVSS
VL: QAVVTQEPSLTVSPGGTVTLTCGSSTGAVITSNYANWVQQKPGQAPTGLIGRTYNKVPWTPARFSGSLLGDKAALTLSGAQPEDEAEYFCALWYSNHFVFGGGTKLTVLG
notes: CDR-grafted humanized antibody; also called Humanized HC 2 (H2988) with Humanized LC2 (L2988)
On to B1, for which the “Minimum concentration of binding to lung cancer cell line H838” value (shortened to “Minimum concentration of binding”) amounted to 0.025 µg/mL.

B2: humanized 16A antibody hVH4hVL2 (antibody, human IgG1, lambda, V domains shown)
VH: B1 VH with S17F, A23V, R67N, T69G, Y80F, Y95F
VL: B1 VL
notes: CDR-grafted humanized antibody; also called Humanized HC 4 (H2990) with Humanized LC2 (L2988)
In the case of B2, the “Minimum concentration of binding” value worked out at 0.05 µg/mL.

B3: humanized 16A antibody hVH5hVL2 (antibody, human IgG1, lambda, V domains shown)
VH: B1 VH with A23V, T69G, Y95F
VL: B1 VL
notes: CDR-grafted humanized antibody; also called Humanized HC 5 (H2991) with Humanized LC2 (L2988)
In the case of B3, the “Minimum concentration of binding” value is 0.025 µg/mL.

B4: humanized 16A antibody hVH1hVL2 (antibody, human IgG1, lambda, V domains shown)
VH: B1 VH with G49A
VL: B1 VL
notes: CDR-grafted humanized antibody; also called Humanized HC 1 (H2987) with Humanized LC2 (L2988)
Consider B4, for which the “Minimum concentration of binding” value was determined as 0.025 µg/mL.

B5: humanized 16A antibody hVH3hVL2 (antibody, human IgG1, lambda, V domains shown)
VH: B1 VH with Q3K, Y95F
VL: B1 VL
notes: CDR-grafted humanized antibody; also called Humanized HC 3 (H2989) with Humanized LC2 (L2988)
For B5, the “Minimum concentration of binding” value was 0.025 µg/mL.

B6: mouse-human chimeric antibody 16A (antibody, human IgG1, lambda, V domains shown)
VH: EVKLHQSGGGLVQPGGFLKISCVVSGIDFSRYWMSWVRRAPGKGLEWIGEITPDSNTINYVPSLKDNFGISRDNAKNTLFLQMTKVRSEDTALYFCASYYEGFAYWGQGTLVTVSA
VL: QAVVTQESALTTSPGETVTLTCRSSTGAVITSNYANWVQEKPDHLFTGLIGRTYNRVPGVPARFSGSLIGDKAALTITGAQTEDEAIYFCALWYSNHFVFGGGTKLTVLG
notes: Murine 16A VH and VL joined to human IgG1 constant region and human lambda 2 light chain; also called chimeric 16A; 16A chimeric antibody
Take B6: the “Minimum concentration of binding” value amounted to 0.0125 µg/mL.
